Test [1] concerns the target OVA peptide SIINFEKL-MHC complex (OVA257-264 presented in the context of MHC class I H-2K^b) on tumor cells (chicken). Kind of test: cell-based or functional assay.
The target of test [2] is SIINFEKL-specific TCR on CD8+ T-cells of OT-I transgenic mice. Kind of test: flow cytometry, dextramer staining of OT-I activated CD8+ T-cells.

With “T-cell receptor (TCR) of the T-cell hybridoma B3Z86/90.14 (B3Z)”, in test [1], the IL-2 (pg/ml) from B3Z T-cells; B16F10 tumor cells, OVA 0.25 mg/ml amounted to 22 pg/mL; the IL-2 (pg/ml) from B3Z T-cells; B16F10 tumor cells, OVA 0.5 mg/ml was found to be 76 pg/mL; the IL-2 (pg/ml) from B3Z T-cells; B16F10 tumor cells, OVA 1.0 mg/ml was found to be 323 pg/mL; the IL-2 (pg/ml) from B3Z T-cells; B16F10 tumor cells, OVA 2.5 mg/ml worked out at 589 pg/mL. Besides, in test [1], the IL-2 (pg/ml) from B3Z T-cells; KP LUN31 tumor cells, OVA 0.125 mg/ml amounted to 22 pg/mL; the IL-2 (pg/ml) from B3Z T-cells; KP LUN31 tumor cells, OVA 0.25 mg/ml was 68 pg/mL; the IL-2 (pg/ml) from B3Z T-cells; KP LUN31 tumor cells, OVA 0.5 mg/ml is 247 pg/mL; the IL-2 (pg/ml) from B3Z T-cells; KP LUN31 tumor cells, OVA 1.0 mg/ml is 483 pg/mL. In test [1], this substance showed an IL-2 (pg/ml) from B3Z T-cells; KP LUN31 tumor cells, OVA 2.5 mg/ml of 913 pg/mL; an IL-2 (pg/ml) from B3Z T-cells; LL2 tumor cells, OVA 2.5 mg/ml of 11 pg/mL; an IL-2 (pg/ml) from B3Z T-cells; LL2 tumor cells, OVA 5.0 mg/ml of 26 pg/mL; an IL-2 (pg/ml) from B3Z T-cells; LL2 tumor cells, OVA 10 mg/ml of 33 pg/mL. In test [1], the IL-2 (pg/ml) from B3Z T-cells; MC38 tumor cells, OVA 2.5 mg/ml stood at 54 pg/mL; the IL-2 (pg/ml) from B3Z T-cells; MC38 tumor cells, OVA 5.0 mg/ml is 138 pg/mL; the IL-2 (pg/ml) from B3Z T-cells; MC38 tumor cells, OVA 10 mg/ml was 338 pg/mL.
The substance “H-2 Kb SIINFEKL-APC conjugated dextramer (Immudex) (from UniProt P01901 22-369) (peptide-MHC)” registered a percent of cells positive in test [2] of 100%.
